From patent US20250122274A1 (SCHOLAR ROCK, published 2025) come the findings set out here.

The target in assay [1] is cyno pro-myostatin (cynomolgus monkey). Put plainly: ELISA-type titration, OD 450 nm, Cyno-Pro-GDF-8 Plate 1; protocol not described in the text. (In general: In an ELISA, binding on a coated surface is turned into a signal by an enzyme label.)
Assay [2] shares this target. Put plainly: ELISA-type titration, OD 450 nm, Cyno-Pro-GDF-8 Plate 2; protocol not described in the text.
For assay [3], the target named is T1, murine pro-myostatin (mouse, UniProt O08689 25-376, biotinylated (SPR)).
T1 construct: also called proGDF8 (mouse); mouse pro-myostatin
Put plainly: ELISA-type titration, OD 450 nm, Mu-Pro-GDF-8 Plate 1; protocol not described in the text.

For assay [4], the target named is T1, murine pro-myostatin. Put plainly: ELISA-type titration, absorbance 450 nm, panel Murine Pure Pro-GDF-8; protocol not described in the text.
The target of the next assay is T2, human pro-myostatin (human, UniProt O14793 24-375, biotinylated (SPR)).
T2 construct: Disulfide-linked homodimer; also called proGDF8 (human)
Put plainly: SPR Biacore 8K, biotinylated antigen captured. (In general: SPR reads the build-up and loss of mass on a sensor chip optically.)

B1: Ab110 (antibody, human IgG4 S228P, kappa, V domains shown)
VH: QVQLVQSGAEVKKPGASVKVSCKVSEYTFTNYDIHWVRQAPGKGLEWMGGISAYHGNAIYAQKFQGRVTMTEDTSTDTAYMELSSLKSEDTAVYYCARDRVRRDYYNFGMDVWGQGTTVTVSS
VL: DIQMTQSPSSVSASVGDRVTITCRASEDITSYLAWYQQKPGKAPKLLIYDVSSLQSGVPSRFSGSGSGTDFTLTISSLQPEDFANYYCLQHNAYPYGFGGGTKVEIKR
One may read the EC50 (read off the curve) as the concentration needed to bring the measured effect to its halfway point. With B1, in assay [1], the concentration giving a half-maximal response (EC50 (read off the curve)) was determined as 300 pM.

B2: Ab116 (antibody, human IgG4 S228P, kappa, V domains shown)
VH: QVQLVQSGAEVKKPGASVKVSCKVSGFTFSRPAIHWVRQAPGKGLEWMGGINPNAATTIYAQKFQGRVTMTEDTSTDTAYMELSSLKSEDTAVYYCARGRLLREWELRPYDTWGQGTLVTVSS
VL: DIQMTQSPSSVSASVGDRVTITCRASQSIGKSLAWYQQKPGKAPKLLIYSASNLRSGVPSRFSGSGSGTDFTLTISSLQPEDFANYYCQQYRDVPPITFGGGTKVEIKR
B2 returned an EC50 (read off the curve) in assay [2] of 500 pM.

B3: Ab113 (antibody, human IgG4 S228P, kappa, V domains shown)
VH: QVQLVQSGAEVKKPGASVKVSCKVSGYLLTELSIHWVRQAPGKGLEWMGGIIPSFGTAIYAQKFQGRVTMTEDTSTDTAYMELSSLKSEDTAVYYCAISYSGFDLLPLDKWGQGTLVTVSS
VL: DIQMTQSPSSVSASVGDRVTITCRASQHISTWLAWYQQKPGKAPKLLIYYASSLQGGVPSRFSGSGSGTDFTLTISSLQPEDFANYYCLQTYTYPRTFGGGTKVEIKR
Consider B3, for which the binding result in the assay with murine pro-myostatin [3] was “binds”.

B4: Ab104 (antibody, human IgG4 S228P, kappa, V domains shown)
VH: EVQLVESGGGLVQPGGSLRLSCAASGSAFSSYGMSWVRQAPGKGLELVASINSNGGSTYYPDSVKGRFTISRDNAKNSLYLQMNSLRAEDTAVYYCARDLLVKFLSWSHYYGMDVWGQGTTVTVSS
VL: DIVMTQSPLSLPVTPGEPASISCRSSQSLLHSSGHNFLHWYLQKPGQSPQLLIYEVSNRVSGVPDRFSGSGSGTDFTLKISRVEAEDVGVYYCMQQTQYPPTFGGGTKVEIKR
Regarding B4, in the assay with murine pro-myostatin [4], the “EC50 (read off the curve)” value was approximately 700 pM.

B5: Ab109 (antibody, human IgG4 S228P, kappa, V domains shown)
VH: EVQLVESGGGLVQPGGSLRLSCAASGFTFSSYGMSWVRQAPGKGLELVASFTGSGGTYYPDSVKGRFTISRDNAKNSLYLQMNSLRAEDTAVYYCARDLLIRFLEWSHYYGMDVWGQGTTVTVSS
VL: B4 VL
notes: also called Ab109 Human IgG4
A word on the koff: it is the rate constant with which the complex falls apart. Higher therefore signals a short-lived complex. B5 showed a koff in the assay with human pro-myostatin of approximately 0.000916 s⁻¹.
